Paper PMC12654856, “Exploring the Scope of Functionalized N-Acylneuraminic Acid β-Methyl Glycosides as Inhibitors of Neisseria meningitidis CMP-Sialic Acid Synthetase” (Molecules, 2025)

Tests used:
[1] = system: Nc1ccn([C@@H]2O[C@H](COP(=O)(O)OP(=O)(O)OP(=O)(O)O)[C@@H](O)[C@H]2O)c(=O)n1; assay: purified protein; details: Mg2+ CTP binds prior to Neu5Ac
[2] = system: CC(=O)N[C@H]1[C@H]([C@H](O)[C@H](O)CO)OC(O)(C(=O)O)C[C@@H]1O; assay: purified protein; details: Mg2+ active site; binds after CTP

NmB CMP-sialic acid synthetase (CSS) (Neisseria meningitidis MC58)
Km [1]: 22 µM
Km [2]: 37 µM
